For the data set, the target named is T1, RIG-I (recombinant) (human? (GeneID 23586), UniProt O95786 1-925).
T1 sequence: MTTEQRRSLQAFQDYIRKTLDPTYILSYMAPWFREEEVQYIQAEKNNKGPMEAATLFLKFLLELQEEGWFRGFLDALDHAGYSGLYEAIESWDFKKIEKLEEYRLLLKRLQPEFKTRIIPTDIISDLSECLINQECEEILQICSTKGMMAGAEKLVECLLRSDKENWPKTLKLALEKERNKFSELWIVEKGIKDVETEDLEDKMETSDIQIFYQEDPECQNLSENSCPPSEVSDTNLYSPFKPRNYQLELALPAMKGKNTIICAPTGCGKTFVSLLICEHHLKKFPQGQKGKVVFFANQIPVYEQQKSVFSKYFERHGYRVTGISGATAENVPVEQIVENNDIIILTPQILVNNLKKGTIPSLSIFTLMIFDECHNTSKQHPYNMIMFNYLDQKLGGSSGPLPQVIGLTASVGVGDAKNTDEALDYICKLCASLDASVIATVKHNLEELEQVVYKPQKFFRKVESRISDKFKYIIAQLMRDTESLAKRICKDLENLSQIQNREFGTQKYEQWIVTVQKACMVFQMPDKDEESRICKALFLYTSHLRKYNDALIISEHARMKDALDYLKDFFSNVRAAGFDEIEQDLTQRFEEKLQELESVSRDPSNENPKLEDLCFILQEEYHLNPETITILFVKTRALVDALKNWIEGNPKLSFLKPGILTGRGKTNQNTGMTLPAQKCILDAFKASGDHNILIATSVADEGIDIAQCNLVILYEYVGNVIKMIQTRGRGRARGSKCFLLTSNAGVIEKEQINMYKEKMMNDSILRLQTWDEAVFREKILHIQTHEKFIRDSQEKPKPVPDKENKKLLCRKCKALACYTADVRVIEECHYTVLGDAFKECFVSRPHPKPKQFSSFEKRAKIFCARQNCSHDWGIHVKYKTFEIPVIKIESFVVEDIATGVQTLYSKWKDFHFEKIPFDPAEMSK
In words: EMSA.

For orientation: Kd means the free concentration of one partner at which half of the binding sites on the other are occupied at equilibrium, for simple one-to-one binding.

B1: 5'-pppG synthetic 24 bp dsRNA (dsRNA)
RNA 1: GGCAAAAGCAGGGUGACAAAGACA
RNA 2: UGUCUUUGUCACCCUGCUUUUGCC
modifications: 5'-ppp on sense strand only
In the case of B1, the Kd stood at 0.94 nM.

Source of the values: paper doi:10.1101/2023.12.22.573000.
